Molecular target: human IL-21 (human) (UniProt Q9HBE4)
Experiment: cell-based or functional assay

Sequence of human IL-21 (human) (Q9HBE4 25-162 limits assumed): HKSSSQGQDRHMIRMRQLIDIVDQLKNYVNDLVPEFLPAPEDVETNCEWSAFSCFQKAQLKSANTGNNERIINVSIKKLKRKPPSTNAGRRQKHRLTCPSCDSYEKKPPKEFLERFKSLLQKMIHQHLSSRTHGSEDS

Human IL-21R-BaF3 Neutralization IC50: 0.2 nM
Substance: human IL-21R-Fc (from UniProt Q9HBE5 20-232) (Fc fusion)

Source: US20090298167A1
